Reference: patent publication US20200017592A1 (Regeneron, published 2020)
Numbering of substitutions follows the chain as printed.

T1: in-line fusion protein of human IL-36R extracellular domain and IL1RAcP extracellular domain expressed with … (human; mouse, UniProt Q9HB29 20-337; Q9NPH3 21-359, limits assumed)
T1 construct: not shown: mouse IgG2a Fc
T1 sequence (looked up): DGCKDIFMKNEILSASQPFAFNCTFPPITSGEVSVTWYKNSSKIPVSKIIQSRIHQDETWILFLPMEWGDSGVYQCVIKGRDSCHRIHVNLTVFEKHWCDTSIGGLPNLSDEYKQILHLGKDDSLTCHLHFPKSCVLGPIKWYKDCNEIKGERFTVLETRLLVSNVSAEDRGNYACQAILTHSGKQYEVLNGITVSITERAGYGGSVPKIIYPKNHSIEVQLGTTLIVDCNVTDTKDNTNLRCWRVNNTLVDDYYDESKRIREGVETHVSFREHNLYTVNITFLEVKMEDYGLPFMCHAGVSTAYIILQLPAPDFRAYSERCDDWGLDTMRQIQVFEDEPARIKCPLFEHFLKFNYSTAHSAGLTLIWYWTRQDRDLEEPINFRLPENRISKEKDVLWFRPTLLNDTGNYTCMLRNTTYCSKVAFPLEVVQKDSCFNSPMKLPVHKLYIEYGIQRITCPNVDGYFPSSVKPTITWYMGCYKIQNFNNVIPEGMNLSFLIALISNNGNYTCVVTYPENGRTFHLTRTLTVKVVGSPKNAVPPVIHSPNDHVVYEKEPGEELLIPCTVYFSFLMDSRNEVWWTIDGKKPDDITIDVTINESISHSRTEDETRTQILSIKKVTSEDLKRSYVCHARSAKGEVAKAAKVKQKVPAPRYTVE

T2: human IL-36R extracellular domain expressed with a C-terminal mouse IgG2a Fc tag (hIL-36R-mFc) (human; mouse, UniProt Q9HB29 20-337)
T2 construct: not shown: mouse IgG2a Fc, E98-K330
T2 sequence (looked up): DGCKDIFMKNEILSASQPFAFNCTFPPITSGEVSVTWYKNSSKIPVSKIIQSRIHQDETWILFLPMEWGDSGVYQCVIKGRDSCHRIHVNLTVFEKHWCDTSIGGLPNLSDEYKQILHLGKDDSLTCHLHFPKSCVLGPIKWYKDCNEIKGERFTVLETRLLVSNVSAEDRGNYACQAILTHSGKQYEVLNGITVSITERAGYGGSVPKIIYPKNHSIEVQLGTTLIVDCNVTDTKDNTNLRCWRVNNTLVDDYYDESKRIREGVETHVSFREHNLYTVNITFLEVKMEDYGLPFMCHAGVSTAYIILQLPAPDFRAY

B1: H4H14728P (antibody, human IgG4 S228P, kappa, V domains shown)
VH: QVQLQESGPGLVKPSQTLSLTCTVSGGSISSADYYWSWIRQHPGKGLEWIGSIYYTGSTYYNPSLKSRLTISIDTSENQFSLKLTSLTAADTAVYYCASEEANWGSHFDSWGQGTLVTVSS
VL: DIQMTQSPSSLSASVGDRVTITCRASQSIDNFLNWYQQKPGKAPKLLIYAASSLQSGVPSRFSGSGSGTDFTLTISSLQPEDFASYYCQHSHSAHPITFGQGTRLEIKR
notes: Fully human anti-IL-36R antibody
B2: H4H14731P (antibody, human IgG4 S228P, kappa, V domains shown)
VH: QLQLQESGPGLVKPSETLSLTCTVSGGSISSSNYYWGWIRQPPGKRLEWIGSIYYSGSTYYNPSLKTRVTISVDTSKNQFSLKLTSVTAADTAVYYCAREEAAALTHFDFWGQGTLVTVSS
VL: B1 VL with D30S, F32Y, Y49F, S85T, A94S
notes: as for B1
B3: H4H14732P2 (antibody, human IgG4 S228P, kappa, V domains shown)
VH: EVQLVESGGGLVQPGRSLRLSCAASGFTFDDYAMHWVRQAPGKGLEWVSGINWAGYNIDYADSVKGRFTISRDNAKNSLYLQMNSLRAEDTALYYCAKDMRGFSYGFPFDYWGQGTLVTVSS
VL: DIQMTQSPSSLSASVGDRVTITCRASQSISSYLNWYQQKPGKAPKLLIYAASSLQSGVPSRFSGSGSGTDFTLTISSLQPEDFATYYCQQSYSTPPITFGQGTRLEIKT
notes: as for B1
B4: H4H14709P (antibody, human IgG4 S228P, kappa, V domains shown)
VH: EVQLVESGGGLVQPGGSLRLSCAASGFTFSDYAMSWVRQAPGKGLEWVSGISGNGGDTYYGDFVKGRFTISRDNSKNTLYLQMNSLRGEDTAAYFCVIDLDYWGQGTLVTVSS
VL: DIQMTQSPSTLSASEGDRVTITCRASQSISSWLAWYQQKPGKAPRLLIYKASILGDGVPSRFSGSGSGTEFTLTISSLQPDDFATYYCHQYNSYLWTFGQGTKVEIKR
notes: as for B1

Biological target: T3, human IL-36R extracellular domain expressed with a C-terminal myc-myc-hexahistidine tag (hIL-36R-MMH) (human, UniProt Q9HB29 20-337)
T3 construct: also called Human IL-36R-MMH; REGN2105
Assay: SPR Biacore T200, mAb captured on anti-hFc, 25C, PBS-T pH 6.0 running buffer
Protocol: (§1) Additional binding experiments were performed to determine the effect of pH on the rate of dissociation of IL-36R bound to purified anti-IL-36R antibodies, which was determined using a real-time surface plasmon resonance biosensor using a Biacore T200 instrument. The Biacore sensor surface was first derivatized by amine coupling with a monoclonal mouse anti-human Fc antibody (GE, # BR-1008-39) to capture anti-IL-36R antibodies. […] Different concentrations of hIL-36R-MMH and mfIL-36R-MMH prepared in PBS-T, pH7.4 buffer (ranging from 100 nM to 11.11 nM, 3-fold dilutions) were injected over the anti-IL-36R antibody captured surface for 4 minutes at a flow rate of 50 μL/minute and their dissociation in two running buffers, PBS-T, pH7.4 and PBS-T, pH 6.0, was monitored for 10 minutes. All of these binding kinetics experiments were performed at 25° C. and 37° C. Kinetic dissociation constant (kd) were determined by fitting the real-time sensorgrams to a 1:1 binding model using Scrubber 2.0c curve fitting software. Binding dissociative half-lives (t_{1/2}) were calculated from kd as: […]

| Binder | 100 nM Human IL-36R-MMH Bound (RU) | koff [s⁻¹] | t1/2 [min] |
| --- | --- | --- | --- |
| B1 | 96 | 0.000887 | 13 |
| B2 | 43 | 0.000679 | 17 |
| B3 | 28 | 0.000918 | 13 |
| B4 | 99 | 0.000842 | 14 |

Biological target: T1, in-line fusion protein of human IL-36R …
Assay: SPR Biacore 4000, mAb captured on anti-hFc, 25C
Protocol: (§2) Equilibrium dissociation constants (KD values) for IL-36R binding to purified anti-IL-36R antibodies were determined using a real-time surface plasmon resonance biosensor using a Biacore 4000 instrument. The Biacore sensor surface was first derivatized by amine coupling with a monoclonal mouse anti-human Fc antibody (GE, # BR-1008-39) to capture anti-IL-36R monoclonal antibodies. All binding studies were performed in 0.01 M Hepes pH 7.4, 0.15 M NaCl, 3 mM EDTA, and 0.05% v/v Surfactant Tween-20 (HBS-ET running buffer) at 25° C. and 37° C. Different concentrations of IL-36R reagents, human IL-36R extracellular domain expressed with a C-terminal myc-myc-hexahistidine tag (hIL-36R-MMH), Macaca fascicularis IL-36R extracellular domain expressed with a C-terminal myc-myc-hexahistidine tag (mfIL-36R-MMH: mROR1 signal sequence (M1-A29). Macaca fascicularis IL36R_ecto domain (D20-A336).mycmycHis6), human IL-36R extracellular domain expressed with a C-terminal mouse IgG2a Fc tag (hIL-36R-mFc: mROR1 signal sequence (M1-A29)-human IL36R (D20-Y337)-mouse IgG2aFc (E98-K330)) or an in-line fusion protein of human IL-36R extracellular domain and IL1RAcP extracellular domain expressed with mouse IgG2a Fc tag (hIL-36R-Trap-mFc: mROR1 signal sequence (M1-A29)-human IL36R ecto domain (D20-Y337)-human IL1RacP ecto domain(S21-E359)-mouse IgG2aFc) in HBS-ET running buffer (ranging from 100 nM to 3.7 nM, 3-fold dilutions) were injected over the anti-IL-36R antibody captured surface for 4 minutes at a flow rate of 30 μL/minute and their dissociation in HBS-ET running buffer was monitored for 10 minutes. Kinetic association rate constant (kₐ) and dissociation rate constant (kd) were determined by fitting the real-time sensorgrams to a 1:1 binding model using Scrubber 2.0c curve fitting software. Binding dissociation equilibrium constants (KD) and dissociative half-lives (t_{1/2}) were calculated from the kinetic rate constants as: […]

| Binder | 100 nM hIL-36R-Trap-mFc Bound (RU) | Kd [nM] | koff [s⁻¹] | kon [M⁻¹ s⁻¹] | t1/2 [min] |
| --- | --- | --- | --- | --- | --- |
| B1 | 63 | 14 | 0.000565 | 40300 | 20 |
| B2 | 60 | 4.45 | 0.000201 | 45200 | 57 |
| B3 | 161 | 2.95 | 0.00136 | 462000 | 8 |
| B4 | 173 | 0.404 | 8.07e-05 | 200000 | 143 |

Biological target: T2, human IL-36R extracellular domain …
Assay: SPR Biacore 4000, mAb captured on anti-hFc, 25C
Protocol: as §2

| Binder | 100 nM hIL-36R-mFc Bound (RU) | Kd [nM] | koff [s⁻¹] | kon [M⁻¹ s⁻¹] | t1/2 [min] |
| --- | --- | --- | --- | --- | --- |
| B1 | 7 | – | – | – | – |
| B2 | 10 | 5.79 | 0.000323 | 55800 | 36 |
| B3 | 145 | 1.4 | 0.000797 | 570000 | 14 |
| B4 | 142 | 0.335 | 8.62e-05 | 257000 | 134 |

Biological target: T1, in-line fusion protein of human IL-36R …
Assay: SPR Biacore 4000, mAb captured on anti-hFc, 37C
Protocol: as §2

| Binder | 100 nM hIL-36R-Trap-mFc Bound (RU) | Kd [nM] | koff [s⁻¹] | kon [M⁻¹ s⁻¹] | t1/2 [min] |
| --- | --- | --- | --- | --- | --- |
| B1 | 89 | 40.9 | 0.00198 | 48500 | 6 |
| B2 | 78 | 9.77 | 0.000514 | 52600 | 22 |
| B3 | 212 | 3.63 | 0.00182 | 501000 | 6 |
| B4 | 257 | 0.264 | 0.000123 | 467000 | 94 |

Biological target: T2, human IL-36R extracellular domain …
Assay: SPR Biacore 4000, mAb captured on anti-hFc, 37C
Protocol: as §2

| Binder | 100 nM hIL-36R-mFc Bound (RU) | Kd [nM] | koff [s⁻¹] | kon [M⁻¹ s⁻¹] | t1/2 [min] |
| --- | --- | --- | --- | --- | --- |
| B1 | 11 | 28.7 | 0.000465 | 16200 | 25 |
| B2 | 12 | 6.43 | 0.00045 | 69900 | 26 |
| B3 | 195 | 2 | 0.00127 | 635000 | 9 |
| B4 | 211 | 0.205 | 0.000112 | 543000 | 104 |

Biological target: T3, human IL-36R extracellular domain …
Assay: SPR Biacore T200, mAb captured on anti-hFc, 37C, PBS-T pH 6.0 running buffer
Protocol: as §1

| Binder | 100 nM hIL-36R-MMH Bound (RU) | koff [s⁻¹] | t1/2 [min] |
| --- | --- | --- | --- |
| B1 | 114 | 0.00306 | 4 |
| B2 | 84 | 0.00201 | 6 |
| B3 | 36 | 0.00123 | 9 |
| B4 | 146 | 0.00172 | 7 |

Biological target: T3, human IL-36R extracellular domain …
Assay: SPR Biacore T200, mAb captured on anti-hFc, 37C, PBS-T pH 7.4 running buffer
Protocol: as §1

| Binder | 100 nM hIL-36R-MMH Bound (RU) | koff [s⁻¹] | t1/2 [min] |
| --- | --- | --- | --- |
| B1 | 121 | 0.00296 | 4 |
| B2 | 91 | 0.00108 | 11 |
| B3 | 40 | 0.0011 | 10 |
| B4 | 159 | 0.000704 | 16 |

Biological target: T3, human IL-36R extracellular domain …
Assay: SPR Biacore T200, mAb captured on anti-hFc, 25C, PBS-T pH 7.4 running buffer
Protocol: as §1

| Binder | 100 nM Human IL-36R-MMH Bound (RU) | koff [s⁻¹] | t1/2 [min] |
| --- | --- | --- | --- |
| B1 | 103 | 0.000898 | 13 |
| B2 | 65 | 0.000553 | 21 |
| B3 | 32 | 0.000865 | 13 |
| B4 | 111 | 0.00042 | 28 |
